The supplement of paper PMC10724198
± gives the standard deviation of the averaged measurements.

Test system: Saccharomyces cerevisiae
Experiment: protein stability index of tFT-peptide fusion (C-terminal peptide) (PSI (0-1 scale)); higher = more stable (slower turnover)
Conditions: genetic background: wild type; temperature: 30 C
Procedure: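 Multiplexed protein stability (MPS) profiling in S. cerevisiae. Random 12-aa peptides (tFT-X12 library) are fused to the C-terminus of a sfGFP-mCherry tandem fluorescent timer, after mCherry and a GGGS linker. Cells are FACS-sorted into 8 mCherry/sfGFP bins and deep-sequenced. The protein stability index (PSI) is the read-weighted bin average, scaled from 0 (unstable) to 1 (stable). Only peptides with >10 reads are reported; cells were grown at 30 °C in SC-His with glucose.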
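Note: PSI is a weighted mean of sequencing reads over stability bins, variants kept only with over 10 reads, mCherry proximal and sfGFP distal, peptide attached via GGGS linker.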

| Sequence | protein stability index |
| --- | --- |
| CPPPPPPPPSRC | 0.704 ± 0.036 |
| CPPRIVRPRGVK | 0.6775 ± 0.0019 |
| CPRAPKTPISGI | 0.635 ± 0.049 |
| CPRPPPPTACPV | 0.641 ± 0.1 |
| CPSAPHNTLSTG | 0.68 ± 0.052 |
| CQERKLKNQPMV | 0.607 ± 0.054 |
| CQILLSYSGYPH | 0.589 ± 0.021 |
| CQWLIVEWEEKG | 0.662 ± 0.083 |
| CRAGSVGGIRGR | 0.693 ± 0.015 |
| CRPTGSSTRFQL | 0.718 ± 0.01 |
| CRWGGGGRRGRG | 0.723 ± 0.025 |
| CSAHVPAPHSYR | 0.704 ± 0.061 |
| CSDGAFELRRDG | 0.544 ± 0.078 |
| CSDISASTVSRL | 0.715 ± 0.039 |
| CSKLYGAFANTF | 0.644 ± 0.1 |
| CSKRTGRKSVTY | 0.7299 ± 0.0063 |
| CSLSGAFLNQAR | 0.6842 ± 0.0041 |
| CSPCSFCDLVSH | 0.691 ± 0.03 |
| CSSGGFSLFDEA | 0.7504 ± 0.0024 |
| CSWLVEWVLSFS | 0.5417 ± 0.0041 |
| CTAWGGWWTGRR | 0.743 ± 0.16 |
| CTCGDFHRAWVS | 0.667 ± 0.01 |
| CTCTVSMLPRTC | 0.639 ± 0.017 |
| CTFSGSHGSFPS | 0.717 ± 0.028 |
| CTHYFSNSCLLR | 0.604 ± 0.063 |
| CTICQLASKAIC | 0.599 ± 0.04 |

| Sequence | protein stability index |
| --- | --- |
| CTRGVVSPKLFV | 0.786 ± 0.17 |
| CTRLSQTSMGRG | 0.696 ± 0.043 |
| CTSCDVFVFCPF | 0.708 ± 0.036 |
| CVAFLPISSFTS | 0.76 ± 0.07 |
| CVAGSARVCDVR | 0.627 ± 0.083 |
| CVDWGAVGLVAG | 0.598 ± 0.018 |
| CVGFVVVGGVLG | 0.667 ± 0.05 |
| CVGGFLEGIRLG | 0.711 ± 0.041 |
| CVGVEDFFFACF | 0.703 ± 0.029 |
| CVVRSGIGFSLL | 0.741 ± 0.026 |
| CWAGKITAKIDV | 0.666 ± 0.0085 |
| CWRDTSSPSVLD | 0.682 ± 0.041 |
| CYCTYHDQDSVS | 0.757 ± 0.032 |
| CYLKGSGSWISG | 0.718 ± 0.031 |
| CYPPTRYILGYF | 0.72 ± 0.06 |
| DARALMGEGGSV | 0.651 ± 0.016 |
| DARKTKNRKDTA | 0.699 ± 0.024 |
| DARRAKPTRRNA | 0.688 ± 0.059 |
| DAWSFHNGATGA | 0.676 ± 0.029 |
| DCCAHLRARRLT | 0.539 ± 0.035 |
| DCFSLVLRFTPV | 0.64 ± 0.034 |
| DCRATNTTWGLS | 0.697 ± 0.18 |
| DCVFLPCPRFFL | 0.707 ± 0.03 |
| DDSHVLILKFNW | 0.691 ± 0.045 |
| DERESLFPLCSG | 0.725 ± 0.015 |
| DETIAALYTMTD | 0.615 ± 0.014 |

| Sequence | protein stability index |
| --- | --- |
| DEVGVGASSNVF | 0.619 ± 0.037 |
| DFCSVDLNLCIV | 0.61 ± 0.011 |
| DFGVRLGGPRTL | 0.645 ± 0.017 |
| DGAVRRGVGGLG | 0.699 ± 0.031 |
| DGCVTVDIRRGV | 0.733 ± 0.016 |
| DGGTSGGGVPVP | 0.637 ± 0.054 |
| DGKLNTASIEKV | 0.684 ± 0.036 |
| DGQSAKEPVGFR | 0.681 ± 0.037 |
| DGRGPVSPTSLR | 0.662 ± 0.036 |
| DGVAILPLVRIS | 0.63 ± 0.031 |
| DGWKERDSGVVG | 0.701 ± 0.018 |
| DHLTGTPPSPTV | 0.72 ± 0.048 |
| DIEFGLSTVVCH | 0.5099 ± 0.0046 |
| DIYGYENNIIKN | 0.708 ± 0.013 |
| DKIYNRNSKRRI | 0.6418 ± 0.0055 |
| DKMLDIETNNKH | 0.654 ± 0.033 |
| DKRPTLYSLSLS | 0.621 ± 0.032 |
| DKSGVYYMYSFK | 0.733 ± 0.059 |
| DLGSFVNSGWVT | 0.706 ± 0.044 |
| DLMLSVDLNIDG | 0.699 ± 0.0084 |
| DLRGDYCAGARV | 0.685 ± 0.028 |
| DLRSQGWVALFH | 0.663 ± 0.04 |
| DLSCVPSVNLGM | 0.682 ± 0.075 |
| DLYLETSCSIGG | 0.6723 ± 0.0032 |
| DLYPSVWVSIGP | 0.721 ± 0.019 |
| DLYQRPPLPKFS | 0.688 ± 0.036 |

| Sequence | protein stability index |
| --- | --- |
| DMSVVCDRVLFD | 0.733 ± 0.034 |
| DNKDRFRMFRVG | 0.695 ± 0.095 |
| DNVVLVRQAAFI | 0.618 ± 0.066 |
| DPCDVVQHPSAQ | 0.657 ± 0.11 |
| DPPLPLSPLTHR | 0.679 ± 0.05 |
| DPSQRRPDCCTY | 0.729 ± 0.039 |
| DPVGRSSHQFFL | 0.633 ± 0.026 |
| DPWPPPRTRTRT | 0.682 ± 0.015 |
| DQEENKRTNGTR | 0.7096 ± 0.0034 |
| DQIDGPCNSRTR | 0.674 ± 0.023 |
| DQIWHPATRIMC | 0.638 ± 0.071 |
| DQSLHAWSLRCT | 0.771 ± 0.011 |
| DRDRVLLRGYRH | 0.57134 ± 0.00013 |
| DRGSSRFTIGPK | 0.676 ± 0.022 |
| DRHWLELVGLWS | 0.75 ± 0.049 |
| DRLGQYSLIQRG | 0.687 ± 0.022 |
| DRLSSPYTLFCY | 0.571 ± 0.037 |
| DRRKRMLLLEHP | 0.76 ± 0.054 |
| DRSQKINKKKKK | 0.75 ± 0.017 |
| DRSRATRSPHIN | 0.703 ± 0.023 |
| DRTQKIQNNKWM | 0.622 ± 0.014 |
| DSDIIDYKMEII | 0.722 ± 0.12 |
| DSGLVSRNLFLH | 0.645 ± 0.18 |
| DSGYRQWGGTGR | 0.714 ± 0.12 |
| DSILCVPCVYLY | 0.629 ± 0.0084 |
| DSRTLDQNRAKF | 0.824 ± 0.032 |

| Sequence | protein stability index |
| --- | --- |
| DSSCLVWYRCGC | 0.719 ± 0.083 |
| DSTGFRQNGQTD | 0.73 ± 0.015 |
| DSTLCSCSLHTS | 0.777 ± 0.12 |
| DSTVGRTLRTRR | 0.617 ± 0.068 |
| DSVGVLVPRGFR | 0.766 ± 0.045 |
| DTDRRWLGTFLV | 0.534 ± 0.023 |
| DTLPSYPVHCRP | 0.71 ± 0.014 |
| DTRRHSFCSGTG | 0.697 ± 0.029 |
| DTSNRRFAYRRS | 0.533 ± 0.12 |
| DTTTQPMSYEDP | 0.669 ± 0.22 |
| DTYSEQRIVVTK | 0.677 ± 0.012 |
| DVHNCSLQAAKK | 0.691 ± 0.012 |
| DVLCALYFGRSK | 0.707 ± 0.045 |
| DVLGLSSRPFRV | 0.665 ± 0.015 |
| DVLSSVRGLTLL | 0.678 ± 0.0082 |
| DVVWRVVNDSDL | 0.712 ± 0.051 |
| DYLGGGARSEVD | 0.745 ± 0.029 |
| EACVAAMTPKSL | 0.657 ± 0.0083 |
| EADRAPSGGAGN | 0.673 ± 0.013 |
| EAGAKEWGAKQT | 0.7006 ± 0.007 |
| EAGVGSGGGRCG | 0.673 ± 0.058 |
| EALTLLGAFYLP | 0.694 ± 0.025 |
| EALVVLGVGFFG | 0.651 ± 0.021 |
| EARLGVGRCGTG | 0.67 ± 0.0098 |
| EAVVWGTLLCGG | 0.694 ± 0.01 |
| ECAGVVRAKLPA | 0.718 ± 0.05 |

| Sequence | protein stability index |
| --- | --- |
| ECGLGGWGGLGV | 0.657 ± 0.078 |
| ECIKVRGQWREI | 0.662 ± 0.011 |
| EDCAGIFCQSVK | 0.68 ± 0.015 |
| EDVPRGWACRGR | 0.747 ± 0.024 |
| EECSYERRRTRE | 0.8059 ± 0.0017 |
| EEGGTRGASAVV | 0.7134 ± 0.0024 |
| EEKASKSSRLKK | 0.699 ± 0.036 |
| EEQKAKQKQEYG | 0.639 ± 0.077 |
| EERVEYHVALEV | 0.664 ± 0.024 |
| EESAHPCRREVR | 0.58988 ± 3.9e-05 |
| EESKEKKKNEEE | 0.63584 ± 4.9e-05 |
| EEVVAQYCITLS | 0.5864 ± 0.0021 |
| EFLGRVPNTQDG | 0.668 ± 0.078 |
| EGAGSAPCMVQG | 0.68 ± 0.026 |
| EGDGAVGKTRGD | 0.691 ± 0.042 |
| EGEDRVEPGTQT | 0.722 ± 0.045 |
| EGGERGSKIVDT | 0.593 ± 0.029 |
| EGGILHKKFTKS | 0.696 ± 0.025 |
| EGGKGGLVIVGG | 0.709 ± 0.11 |
| EGGWRLVWGRGG | 0.7222 ± 0.0024 |
| EGKNEFINGTTT | 0.696 ± 0.023 |
| EGKPALANSTVR | 0.712 ± 0.052 |
| EGLCFLICKERS | 0.729 ± 0.025 |
| EGPEGRDVVRRY | 0.644 ± 0.0096 |
| EGRRAVGRGRGR | 0.672 ± 0.05 |
